These results are taken from paper PMC4968818.

The target in the assay is voltage-dependent anion channel (VDAC) protein (human (endogenous in T47D)) (UniProt P21796). Nature of the assay: co-IP; VDAC immunoprecipitated from cell lysate (anti-VDAC1/2/3, protein G agarose; lysate first blocked with 10 uM VDAC-binding membrane domain peptide), beads washed with PBS and incubated at RT for 50 min with recombinant HK at pH 7.8; western blots for HK-1, HK-2 and VDAC; band intensities normalized by VDAC bands.

B1: recombinant hexokinase 1 (HK-1) (enzyme)
chain: MIAAQLLAYYFTELKDDQVKKIDKYLYAMRLSDETLIDIMTRFRKEMKNGLSRDFNPTATVKMLPTFVRSIPDGSEKGDFIALDLGGSSFRILRVQVNHEKNQNVHMESEVYDTPENIVHGSGSQLFDHVAECLGDFMEKRKIKDKKLPVGFTFSFPCQQSKIDEAILITWTKRFKASGVEGADVVKLLNKAIKKRGDYDANIVAVVNDTVGTMMTCGYDDQHCEVGLIIGTGTNACYMEELRHIDLVEGDEGRMCINTEWGAFGDDGSLEDIRTEFDREIDRGSLNPGKQLFEKMVSGMYLGELVRLILVKMAKEGLLFEGRITPELLTRGKFNTSDVSAIEKNKEGLHNAKEILTRLGVEPSDDDCVSVQHVCTIVSFRSANLVAATLGAILNRLRDNKGTPRLRTTVGVDGSLYKTHPQYSRRFHKTLRRLVPDSDVRFLLSESGSGKGAAMVTAVAYRLAEQHRQIEETLAHFHLTKDMLLEVKKRMRAEMELGLRKQTHNNAVVKMLPSFVRRTPDGTENGDFLALDLGGTNFRVLLVKIRSGKKRTVEMHNKIYAIPIEIMQGTGEELFDHIVSCISDFLDYMGIKGPRMPLGFTFSFPCQQTSLDAGILITWTKGFKATDCVGHDVVTLLRDAIKRREEFDLDVVAVVNDTVGTMMTCAYEEPTCEVGLIVGTGSNACYMEEMKNVEMVEGDQGQMCINMEWGAFGDNGCLDDIRTHYDRLVDEYSLNAGKQRYEKMISGMYLGEIVRNILIDFTKKGFLFRGQISETLKTRGIFETKFLSQIESDRLALLQVRAILQQLGLNSTCDDSILVKTVCGVVSRRAAQLCGAGMAAVVDKIRENRGLDRLNVTVGVDGTLYKLHPHFSRIMHQTVKELSPKCNVSFLLSEDGSGKGAALITAVGVRLRTEASS
Consider B1, for which the amount co-precipitated at pH 7.8, percent of that at pH 6.2 was 143%.

B2: recombinant hexokinase 2 (HK-2) (enzyme)
chain: MIASHLLAYFFTELNHDQVQKVDQYLYHMRLSDETLLEISKRFRKEMEKGLGATTHPTAAVKMLPTFVRSTPDGTEHGEFLALDLGGTNFRVLWVKVTDNGLQKVEMENQIYAIPEDIMRGSGTQLFDHIAECLANFMDKLQIKDKKLPLGFTFSFPCHQTKLDESFLVSWTKGFKSSGVEGRDVVALIRKAIQRRGDFDIDIVAVVNDTVGTMMTCGYDDHNCEIGLIVGTGSNACYMEEMRHIDMVEGDEGRMCINMEWGAFGDDGSLNDIRTEFDQEIDMGSLNPGKQLFEKMISGMYMGELVRLILVKMAKEELLFGGKLSPELLNTGRFETKDISDIEGEKDGIRKAREVLMRLGLDPTQEDCVATHRICQIVSTRSASLCAATLAAVLQRIKENKGEERLRSTIGVDGSVYKKHPHFAKRLHKTVRRLVPGCDVRFLRSEDGSGKGAAMVTAVAYRLADQHRARQKTLEHLQLSHDQLLEVKRRMKVEMERGLSKETHASAPVKMLPTYVCATPDGTEKGDFLALDLGGTNFRVLLVRVRNGKWGGVEMHNKIYAIPQEVMHGTGDELFDHIVQCIADFLEYMGMKGVSLPLGFTFSFPCQQNSLDESILLKWTKGFKASGCEGEDVVTLLKEAIHRREEFDLDVVAVVNDTVGTMMTCGFEDPHCEVGLIVGTGSNACYMEEMRNVELVEGEEGRMCVNMEWGAFGDNGCLDDFRTEFDVAVDELSLNPGKQRFEKMISGMYLGEIVRNILIDFTKRGLLFRGRISERLKTRGIFETKFLSQIESDCLALLQVRAILQHLGLESTCDDSIIVKEVCTVVARRAAQLCGAGMAAVVDRIRENRGLDALKVTVGVDGTLYKLHPHFAKVMHETVKDLAPKCDVSFLQSEDGSGKGAALITAVACRIREAGQR
For B2, the amount co-precipitated at pH 7.8, percent of that at pH 6.2 is 213%.
